Measured values published in paper PMC2532715.

Target: T1, SgrAI restriction endonuclease (UniProt Q9F6L0 1-338)
T1 sequence: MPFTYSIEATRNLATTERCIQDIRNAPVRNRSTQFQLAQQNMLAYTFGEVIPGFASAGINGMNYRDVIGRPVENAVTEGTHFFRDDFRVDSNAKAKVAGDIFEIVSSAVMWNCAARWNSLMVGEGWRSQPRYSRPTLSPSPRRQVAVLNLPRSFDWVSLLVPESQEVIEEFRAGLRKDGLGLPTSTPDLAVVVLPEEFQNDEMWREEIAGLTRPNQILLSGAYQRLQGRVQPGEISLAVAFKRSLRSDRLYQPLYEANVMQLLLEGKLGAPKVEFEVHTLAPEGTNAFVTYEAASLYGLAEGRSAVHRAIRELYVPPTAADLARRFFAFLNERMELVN
Test: X-ray crystallography

B1: Cognate 18 (dsDNA)
DNA 1: GAGTCCACCGGTGGACTC
DNA 2: GAGTCCACCGGTGGACTC
binding result: binds
